Assay results as given in article PMC3687086 (Nature, 2013).

T1: Rpt1 (subunit of the base) (yeast, UniProt P33299 1-467)
T1 sequence: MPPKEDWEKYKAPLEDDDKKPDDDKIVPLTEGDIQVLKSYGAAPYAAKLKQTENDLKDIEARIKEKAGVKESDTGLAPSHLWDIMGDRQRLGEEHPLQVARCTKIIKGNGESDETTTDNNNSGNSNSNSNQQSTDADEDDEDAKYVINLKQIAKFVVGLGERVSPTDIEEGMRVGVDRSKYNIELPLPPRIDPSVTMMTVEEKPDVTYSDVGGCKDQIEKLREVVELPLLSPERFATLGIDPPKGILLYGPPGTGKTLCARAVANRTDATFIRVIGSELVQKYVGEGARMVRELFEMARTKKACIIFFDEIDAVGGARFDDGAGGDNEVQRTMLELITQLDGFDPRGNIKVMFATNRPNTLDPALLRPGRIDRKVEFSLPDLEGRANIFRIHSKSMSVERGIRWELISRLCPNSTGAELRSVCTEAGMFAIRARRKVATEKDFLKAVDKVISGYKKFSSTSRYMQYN


What was measured:
[1] = molecular target: T1, Rpt1 (subunit of the base); assay: cryo-EM structure
[2] = molecular target: Rpt2 (subunit of the base) (yeast, UniProt P40327 1-437); assay: cryo-EM structure
Rpt2 (subunit of the base), sequence (P40327 whole entry): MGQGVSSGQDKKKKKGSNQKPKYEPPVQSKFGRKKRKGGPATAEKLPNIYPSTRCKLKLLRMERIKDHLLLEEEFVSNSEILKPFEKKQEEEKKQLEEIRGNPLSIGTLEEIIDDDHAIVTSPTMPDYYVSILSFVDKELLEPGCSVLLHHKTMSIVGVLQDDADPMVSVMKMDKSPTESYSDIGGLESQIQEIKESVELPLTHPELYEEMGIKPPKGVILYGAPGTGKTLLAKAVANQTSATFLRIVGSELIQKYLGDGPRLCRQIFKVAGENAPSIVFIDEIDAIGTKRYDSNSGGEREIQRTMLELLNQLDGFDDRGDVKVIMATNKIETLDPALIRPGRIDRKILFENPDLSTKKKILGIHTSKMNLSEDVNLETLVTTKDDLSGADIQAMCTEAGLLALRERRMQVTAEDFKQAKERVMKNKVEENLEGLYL

Binder	binding result [1]	binding result [2]
CP subunit α4 (natural protein) MSGYDRALSIFSPDGHIFQVEYALEAVKRGTCAVGVKGKNCVVLGCERRSTLKLQDTRITPSKVSKIDSHVVLSFSGLNADSRILIEKARVEAQSHRLTLEDPVTVEYLTRYVAGVQQRYTQSGGVRPFGVSTLIAGFDPRDDEPKLYQTEPSGIYSSWSAQTIGRNSKTVREFLEKNYDRKEPPATVEECVKLTVRSLLEVVQTGAKNIEITVVKPDSDIVALSSEEINQYVTQIEQEKQEQQEQDKKKKSNH	binds	binds
CP subunit α3 (natural protein) MGSRRYDSRTTIFSPEGRLYQVEYALESISHAGTAIGIMASDGIVLAAERKVTSTLLEQDTSTEKLYKLNDKIAVAVAGLTADAEILINTARIHAQNYLKTYNEDIPVEILVRRLSDIKQGYTQHGGLRPFGVSFIYAGYDDRYGYQLYTSNPSGNYTGWKAISVGANTSAAQTLLQMDYKDDMKVDDAIELALKTLSKTTDSSALTYDRLEFATIRKGANDGEVYQKIFKPQEIKDILVKTGITKKDEDEEADEDMK		binds
